In the supplement of paper PMC10567573:

B1: MFF (parent)
chain: DDLTVVDAASLRRQIIKLNRRLQL

Variants of: B1
Assay: protein stability index of a GFP-peptide fusion (GPS, HEK-293T) (PSI 1-6); higher = more stable
Settings: c terminus: a fixed tail appended
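Note: lentivirally expressed fusions sorted by FACS into six bins by GFP to DsRed ratio, PSI derived from sequencing read proportions per bin multiplied by bin number.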

Protein stability index: each site, then its substitutions
R20: G 2.04; H 2.26; C 2.06; Y 1.74; M 2.21; S 1.96; Q 1.85; L 2.37; P 2.79; I 2.07; N 2.4; E 2.02; D 2.82; K 1.02; V 1.9; F 2.43; T 2.76; A 1.9; W 1.37
N19: S 2.38; T 2.68; R 1.76; W 2.86; Y 1.85; V 2.25
R21: D 1.73; C 1.95; W 1.91; G 1.84; T 1.91; L 1.33; S 2.98; Q 1.84; E 1.46; P 2.99; N 2.46; M 1.14; F 2.33; A 1.57; V 1.79; Y 1.94; K 1.88; H 1.6
L22: P 3.52; Q 3.21; T 2.62; A 3.25; G 3.13; E 2.77; H 2.95; R 3.01; Y 2.7; C 1.91; M 3.02; D 3.95; F 2.36; W 2.4; V 2.61; S 3.6; K 3.74; N 3.78; I 1.99
L24: N 2.35; R 2.74; F 1.8; I 2.32; E 2.23; Y 1.72; P 2.89; S 2.42; D 2.77; M 1.71; A 2.29; V 3.01; C 2.06; W 1.94; Q 2.89; G 2.56; T 2.38; K 2.99; H 2.21
Q23: L 2.15; F 2.32; M 2.43; T 2.08; H 1.5; V 1.34; P 2.62; I 2.14; D 2.33; N 2.31; R 2.23; S 2.63; G 2.5; K 2.38; E 2.5; C 1.91; A 1.57
